The values below come from the Human Domainome abundance scans (Beltran et al. 2025).

± gives the uncertainty stated by the source.

The chains are these.
B1: POU domain, class 3, transcription factor 2, residues 262 to 338; numbered along this chain, P20265 (parent)
chain: EDTPTSDDLEQFAKQFKQRRIKLGFTQADVGLALGTLYGNVFSQTTICRFEALQLSFKNMCKLKPLLNKWLEEADSS

The series covers variants of B1. The series can be described thus: abundance fitness (aPCA) (normalised: wild type 0, dead -1); higher = more abundant; growth selection in yeast, the domain comes from the species named. The following applies: Homo sapiens.
In the case of T46H, the abundance fitness was -0.208 ± 0.066.
To T46A belongs -0.186 ± 0.03; to T46P, -0.697 ± 0.082; to T46F, -0.325 ± 0.11.
Take G31P: the abundance fitness is -0.648 ± 0.076.
Then G31V, with -0.113 ± 0.034.
To G31T belongs -0.096 ± 0.048.
To G31H belongs -0.287 ± 0.084; to G24R, -0.408 ± 0.027; to G24I, -0.94 ± 0.14.
In the case of G24E, the abundance fitness is -0.641 ± 0.058.
Then T3F, with -0.142 ± 0.1; and T3R, with -0.086 ± 0.029; and T3C, with 0.009 ± 0.06.
To D8C belongs -0.121 ± 0.057; to D8I, -0.423 ± 0.12.
D8V: the abundance fitness is -0.153 ± 0.035.
To D8F belongs -0.186 ± 0.087; to D8L, -0.172 ± 0.04; to D8N, 0.047 ± 0.096.
As to E72V, the abundance fitness was determined as 0.017 ± 0.035.
Then E72I, with -0.102 ± 0.058; and E72M, with -0.117 ± 0.054.
To C48R belongs 0.004 ± 0.027; to C48D, 0.052 ± 0.048; to C48V, -0.099 ± 0.026.
To C48P belongs -0.115 ± 0.044.
Consider C48N, for which the abundance fitness was -0.071 ± 0.11.
Then K17P, with -0.658 ± 0.087.
Then K17N, with -0.895 ± 0.22; and K17V, with -0.316 ± 0.029.
To K17T belongs -0.192 ± 0.036.
For F57D, the abundance fitness is -0.105 ± 0.066.
Then F57H, with -0.015 ± 0.06.
In the case of F57I, the abundance fitness is -0.049 ± 0.063.
For the variant F57M, the abundance fitness is -0.046 ± 0.039.
As for F57T, the abundance fitness came out at 0.01 ± 0.036.
As for F57L, the abundance fitness is -0.077 ± 0.03.
To K69Y belongs 0.138 ± 0.16.
To K69E belongs -0.231 ± 0.1; to K14G, -0.251 ± 0.057; to K14T, -0.121 ± 0.087.
Then K14V, with -0.134 ± 0.054; and K14W, with -0.182 ± 0.082.
For the variant K14L, the abundance fitness was -0.058 ± 0.053.
Take K14F: the abundance fitness was -0.337 ± 0.21.
Then K14D, with -0.012 ± 0.2.
Then K14M, with -0.082 ± 0.093.
To K14Q belongs 0.075 ± 0.098; to F25S, -0.513 ± 0.049; to F25W, -0.149 ± 0.035.
Turning to F25A, the abundance fitness is -0.183 ± 0.033.
Then F25G, with -0.983 ± 0.072; and F25P, with -0.837 ± 0.15; and Q11I, with -0.063 ± 0.089.
Consider Q11W, for which the abundance fitness was -0.196 ± 0.033.
To Q11T belongs -0.049 ± 0.046; to Q11L, -0.04 ± 0.034.
To N68G belongs 0.074 ± 0.065.
Then N68A, with -0.007 ± 0.077.
N68P: the abundance fitness is -0.98 ± 0.47.
Then N68C, with -0.096 ± 0.13.
Then T5D, with -0.042 ± 0.04.
Then T5C, with 0.038 ± 0.046; and Y38W, with -0.341 ± 0.044.
Regarding Y38L, the abundance fitness is -0.41 ± 0.043.
Turning to Y38H, the abundance fitness is -0.029 ± 0.077.
Then D75T, with -0.014 ± 0.042; and D75W, with -0.085 ± 0.034; and D75V, with -0.135 ± 0.031.
As to D75Y, the abundance fitness was -0.046 ± 0.056.
To D75E belongs 0.071 ± 0.034; to D75H, -0.081 ± 0.06; to E73N, -0.192 ± 0.34.
Then E73R, with -0.147 ± 0.066; and E73A, with -0.145 ± 0.081; and E73K, with 0.118 ± 0.089.
To L37E belongs -0.012 ± 0.035.
L37G: the abundance fitness is -0.328 ± 0.026.
On to L37F, for which the abundance fitness was -0.053 ± 0.076.
To K22N belongs -0.117 ± 0.077; to K22D, 0.041 ± 0.047.
Then K22R, with -0.054 ± 0.029; and K22H, with -0.168 ± 0.064.
To K22M belongs -0.073 ± 0.046; to Q54E, -0.03 ± 0.045; to Q54S, -0.157 ± 0.045.
In the case of Q54K, the abundance fitness came out at 0.045 ± 0.055.
Then D7Q, with 0.211 ± 0.17; and D7A, with -0.154 ± 0.1.
To D7V belongs 0.021 ± 0.094.
Then D7R, with 0.031 ± 0.22.
On to A52I, for which the abundance fitness was -0.632 ± 0.13.
To A52W belongs -0.552 ± 0.054.
As to A52M, the abundance fitness is -0.091 ± 0.039.
Then L32K, with 0.493 ± 0.48; and L32F, with -0.25 ± 0.49; and C61R, with -0.025 ± 0.028.
Then C61A, with -0.101 ± 0.031; and F12D, with -0.561 ± 0.23.
To F12C belongs -0.555 ± 0.16; to F12S, -0.614 ± 0.12.
On to F12L, for which the abundance fitness was -0.776 ± 0.17.
Then F12Y, with -0.023 ± 0.17; and E10G, with -0.223 ± 0.028; and E10H, with 0.093 ± 0.047.
Regarding E10T, the abundance fitness was -0.103 ± 0.044.
Then L34E, with -1.01 ± 0.15.
As to L34V, the abundance fitness was -0.329 ± 0.036.
To L34R belongs -0.773 ± 0.054.
For L34W, the abundance fitness is -0.973 ± 0.1.
Then L34D, with -0.76 ± 0.12; and L34H, with -1.2 ± 0.45; and L34Q, with -0.948 ± 0.15.
To L34I belongs -0.132 ± 0.057; to L34C, -0.224 ± 0.05.
Then L9T, with -0.289 ± 0.048; and L9I, with 0.074 ± 0.047; and L9H, with -0.352 ± 0.069.
In the case of L9C, the abundance fitness is -0.246 ± 0.052.
Turning to T45S, the abundance fitness is -0.013 ± 0.032.
Then T45Y, with -0.338 ± 0.097.
Then T45N, with -0.08 ± 0.064; and D29Y, with -0.251 ± 0.063.
To S6H belongs 0.265 ± 0.068.
For the variant S6V, the abundance fitness is 0.062 ± 0.027.
Consider S6I, for which the abundance fitness amounted to 0.011 ± 0.052.
Regarding S6Y, the abundance fitness came to 0.126 ± 0.057.
To S6A belongs 0.108 ± 0.028; to V30Y, -0.652 ± 0.26; to V30W, -0.793 ± 0.14.
Then V30H, with -0.529 ± 0.19; and V30C, with -0.176 ± 0.073; and V30L, with -0.306 ± 0.049.
Consider S77T, for which the abundance fitness is 0.073 ± 0.049.
To S77G belongs 0.061 ± 0.036; to K62V, -0.089 ± 0.031.
Then K62S, with -0.055 ± 0.032; and K62C, with -0.25 ± 0.053.
Then K62L, with -0.007 ± 0.036; and D2H, with 0.015 ± 0.051; and D2R, with -0.03 ± 0.029.
D2F: the abundance fitness was -0.133 ± 0.073.
To P65E belongs -0.133 ± 0.072; to P65D, -0.118 ± 0.097; to P65N, -0.138 ± 0.17.
For the variant P65L, the abundance fitness is -0.375 ± 0.13.
Then Q44N, with -0.133 ± 0.06; and Q44D, with -0.018 ± 0.042; and Q44K, with -0.009 ± 0.042.
S76P: the abundance fitness is -0.012 ± 0.044.
On to S76D, for which the abundance fitness came to 0.042 ± 0.048.
Then S76F, with -0.161 ± 0.056; and L23Y, with -0.139 ± 0.054.
With L23E, the abundance fitness was -0.578 ± 0.061.
Consider L23R, for which the abundance fitness was -0.239 ± 0.034.
To L23S belongs -0.345 ± 0.04; to L23M, 0.048 ± 0.04; to T26G, -0.449 ± 0.036.
Take T26H: the abundance fitness is -0.285 ± 0.12.
Then T26V, with -0.797 ± 0.065; and T26S, with -0.014 ± 0.038; and T26D, with -0.601 ± 0.11.
Then Q18H, with -0.193 ± 0.093.
To Q18G belongs -0.273 ± 0.031; to Q18M, -0.089 ± 0.045; to F42Y, 0.056 ± 0.06.
